The results in this text go back to patent publication US20230143604A1, “QW DOSING OF GIP RECEPTOR AGONIST PEPTIDE COMPOUNDS AND USES THEREOF” (TAKEDA PHARMACEUTICAL COMPANY LIMITED, priority 2020, published 2023).

One data set can be described thus: physchem. The essentials: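 Solubility at pH 7.4 determined by stepwise addition of 200 mM phosphate buffer in 100 μL increments to 3 mg peptide, mixing briefly each time, until no insoluble material remained, then measured by liquid chromatography.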
A further data set concerns the target T1, human GLP-1R (Homo sapiens, UniProt P43220).
T1 construct: HEK-293T cells overexpressing full-length human GLP-1R; FLAG (N); host or cells: HEK-293T
The data set is described as follows: Human GLP1R agonist activity, intracellular cAMP accumulation. Format: cell-based. The following applies: HEK-293T cells overexpressing human GLP-1R, 1 hr, read-out: Human GLP1R cAMP EC50, HEK293T. The protocol:
Cells are cultured per the manufacturer's protocol in DMEM with 10% fetal bovine serum and 1 μg/mL puromycin and stored in frozen aliquots to be used as assay ready cells. On the day of the assay, cells are removed from frozen storage, washed two times in 1× Kreb's Ringer Buffer (Zenbio, Research Triangle Park, N.C.), and re-suspended to a concentration of 4×10^5 cells/mL in 1× Kreb's Ringer Buffer. […] Cells are incubated with test compound for 1 hr at room temperature in the dark, and cAMP accumulation is measured using the Cisbio HiRange cAMP assay kit (Bedford, Mass.) per the manufacturer's protocol. Anti-cAMP antibody and d2-cAMP tracer reagents diluted in lysis/detection buffer are incubated in the dark for 1 hr, and results are measured on an Envision plate reader (Perkin Elmer, Waltham, Mass.). Data is normalized using 1 nm GLP-1 as 100% activity, and DMSO alone as 0% activity.
For orientation: Cyclic AMP is a second messenger, typically raised through Gs and lowered through Gi signalling.

Data set [1] deals with full-length human GLP-1R with an N-terminal FLAG tag, overexpressed on HEK-293T cells (human, UniProt P43220 24-463). The data set is described as follows: cell-based or functional assay.
Data set [2] concerns the target T2, full-length human GIPR with an N-terminal FLAG tag, overexpressed on HEK-293T cells (human, UniProt P48546 22-466).
T2 sequence (looked up): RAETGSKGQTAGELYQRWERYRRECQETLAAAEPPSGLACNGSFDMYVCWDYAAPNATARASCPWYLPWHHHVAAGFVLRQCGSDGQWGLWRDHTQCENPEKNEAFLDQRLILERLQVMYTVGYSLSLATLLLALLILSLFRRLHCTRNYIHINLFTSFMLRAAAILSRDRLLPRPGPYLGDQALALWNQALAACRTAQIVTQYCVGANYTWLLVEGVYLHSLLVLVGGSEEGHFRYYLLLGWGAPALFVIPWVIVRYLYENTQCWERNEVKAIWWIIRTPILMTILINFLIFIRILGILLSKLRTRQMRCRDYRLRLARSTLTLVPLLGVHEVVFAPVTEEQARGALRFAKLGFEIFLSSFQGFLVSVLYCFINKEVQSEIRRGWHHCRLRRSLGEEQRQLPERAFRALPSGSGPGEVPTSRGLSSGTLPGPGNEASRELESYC
The data set is described as follows: cell-based or functional assay.

Starred links: 1 amine or outer side, 2 acyl side, 3 side chain; linkers in the order of their positions; H or OH if unused. Non-standard residues stand in square brackets, D forms with d. Residues, ends and D or L forms follow the SMILES beside them. Groups on a side chain read outwards from the residue. No end group written: not given here. *: point of attachment. C18 diacid = O=C(O)CCCCCCCCCCCCCCCCC(=O)*; C17 diacid = O=C(O)CCCCCCCCCCCCCCCC(=O)*; γGlu = O=C(O)[C@H](CCC(=O)[*:2])N[*:1]; NMeY = CN[C@@H](Cc1ccc(O)cc1)C(=O)O; Stearoyl = CCCCCCCCCCCCCCCCCC(=O)*; AEEA = NCCOCCOCC(=O)O; Aib = CC(C)(N)C(=O)O Some results are limits rather than exact numbers.

T1 sequence (P43220 24-463): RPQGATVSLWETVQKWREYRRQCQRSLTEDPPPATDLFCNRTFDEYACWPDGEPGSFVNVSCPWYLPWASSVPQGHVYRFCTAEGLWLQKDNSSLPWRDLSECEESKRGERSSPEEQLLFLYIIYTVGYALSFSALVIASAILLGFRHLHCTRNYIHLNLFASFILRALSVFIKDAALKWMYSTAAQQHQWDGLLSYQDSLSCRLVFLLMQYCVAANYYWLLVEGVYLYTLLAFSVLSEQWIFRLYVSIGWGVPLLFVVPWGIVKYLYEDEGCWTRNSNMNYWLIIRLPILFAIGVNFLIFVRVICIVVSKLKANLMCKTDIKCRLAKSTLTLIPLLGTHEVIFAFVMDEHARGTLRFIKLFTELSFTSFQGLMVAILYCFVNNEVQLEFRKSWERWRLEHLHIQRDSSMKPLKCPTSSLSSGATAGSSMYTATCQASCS

As usually defined, the solubility is the dissolved amount per volume that the medium holds. The low end stands for little dissolved substance, the high end for much dissolved substance. Broadly, the EC50 is the midpoint of the concentration-response curve. In the case of `CC[C@H](C)[C@H](NC(=O)[C@H](CO)NC(=O)[C@H](Cc1ccc(O)cc1)NC(=O)[C@H](CC(=O)O)NC(=O)[C@H](CO)NC(=O)[C@@H](NC(=O)[C@H](Cc1ccccc1)NC(=O)[C@@H](NC(=O)CNC(=O)[C@H](CCC(=O)O)NC(=O)C(C)(C)NC(=O)[C@H](Cc1ccc(O)cc1)NC)[C@@H](C)O)[C@@H](C)CC)C(=O)N[C@@H](C)C(=O)N[C@@H](CC(C)C)C(=O)N[C@@H](CC(=O)O)C(=O)N[C@@H](CCCNC(=N)N)C(=O)N[C@@H](CCCCNC(=O)CNC(=O)CNC(=O)CNC(=O)CNC(=O)CNC(=O)CCCCCCCCCCCCCCCCC(=O)O)C(=O)N[C@@H](C)C(=O)N[C@@H](CCC(N)=O)C(=O)NC(C)(C)C(=O)N[C@@H](CC(=O)O)C(=O)N[C@@H](Cc1ccccc1)C(=O)N[C@H](C(=O)N[C@@H](CC(N)=O)C(=O)N[C@@H](Cc1c[nH]c2ccccc12)C(=O)N[C@@H](CC(C)C)C(=O)N[C@@H](CC(C)C)C(=O)N[C@@H](C)C(=O)N[C@@H](CCC(N)=O)C(=O)N[C@@H](CO)C(=O)N1CCC[C@H]1C(=O)NCC(=O)O)C(C)C` [Compound 113], the solubility is not below 15 mg/mL in “physchem” (pH 7.4) and not below 30 mg/mL in “physchem” (pH 7.4, aqueous buffer). For the same molecule, the EC50 at human GLP-1R is 13.5 nM.

As for `CC[C@H](C)[C@H](NC(=O)[C@H](Cc1ccccc1)NC(=O)[C@@H](NC(=O)CNC(=O)[C@H](CCC(=O)O)NC(=O)C(C)(C)NC(=O)[C@H](Cc1ccc(O)cc1)NC)[C@@H](C)O)C(=O)N[C@@H](CO)C(=O)N[C@@H](CC(=O)O)C(=O)N[C@@H](Cc1ccc(O)cc1)C(=O)N[C@@H](CO)C(=O)N[C@H](C(=O)NC(C)(C)C(=O)N[C@@H](CC(C)C)C(=O)N[C@@H](CC(=O)O)C(=O)N[C@@H](CCCNC(=N)N)C(=O)NC(C)(C)C(=O)N[C@@H](C)C(=O)N[C@@H](CCC(N)=O)C(=O)NC(C)(C)C(=O)N[C@@H](CCCCNC(=O)COCCOCCNC(=O)COCCOCCNC(=O)CCCCCCCCCCCCCCCCC(=O)O)C(=O)N[C@@H](Cc1ccccc1)C(=O)N[C@H](C(=O)N[C@@H](CC(N)=O)C(=O)N[C@@H](Cc1c[nH]c2ccccc12)C(=O)N[C@@H](CC(C)C)C(=O)N[C@@H](CC(C)C)C(=O)N[C@@H](C)C(=O)N[C@@H](CCC(N)=O)C(=O)N[C@@H](CCCNC(=N)N)C(=O)NCC(=O)O)C(C)C)[C@@H](C)CC` [Compound 219] (H-[NMeY][Aib]EGTFISDYSI[Aib]LDR[Aib]AQ[Aib]K([AEEA-AEEA-C18 diacid])FVNWLLAQRG-OH), the EC50 at human GLP-1R was determined as 17.4 nM.

For [NMeY][Aib]EGTFISDYSI[Aib]LDR[Aib]AQ[Aib]K([AEEA-AEEA-γGlu-γGlu-C18 diacid])FVNWLLAQRG-NH2 [Compound No. 204], the “Human GLP1R cAMP EC50, HEK293T” value in data set [1] is 6.61 nM. For the same molecule, the “Human GIPR cAMP EC50, HEK293T” value in data set [2] was 0.0003 nM.

With [NMeY][Aib]EGTFISDYSIALDR[Aib]AQ[Aib]K([AEEA-AEEA-γGlu-γGlu-C17 diacid])FVNWLLAQKG-OH [Compound No. 200], the “Human GLP1R cAMP EC50, HEK293T” value in data set [1] came to 77.6 nM. In data set [2], the “Human GIPR cAMP EC50, HEK293T” value is 0.0006 nM.

For [NMeY][Aib]EGTFISDYSI[Aib]LDRAAQ[Aib]K([AEEA-AEEA-γGlu-γGlu-C18 diacid])FVNWLLAQRG-OH [Compound No. 214], the “Human GLP1R cAMP EC50, HEK293T” value in data set [1] stood at 28.8 nM. Besides, the “Human GIPR cAMP EC50, HEK293T” value in data set [2] came to 0.0014 nM.

[NMeY][Aib]EGTFISDYSI[Aib]LDR[Aib]AQ[Aib]K([AEEA-γGlu-γGlu-C18 diacid])FVNWLLAQRG-OH [Compound No. 207]: the “Human GLP1R cAMP EC50, HEK293T” value in data set [1] turned out to be 36.3 nM. In addition, the “Human GIPR cAMP EC50, HEK293T” value in data set [2] came to 0.0004 nM.

Regarding [NMeY]GEGTFISDYSI[Aib]LDR[Aib]AQ[Aib]K([AEEA-AEEA-γGlu-γGlu-C18 diacid])FVNWLLAQRG-OH [Compound No. 205], the “Human GLP1R cAMP EC50, HEK293T” value in data set [1] worked out at 33.1 nM. The “Human GIPR cAMP EC50, HEK293T” value in data set [2] came to 0.0008 nM.

Take [NMeY][dA]EGTFISDYSI[Aib]LDR[Aib]AQ[Aib]K([AEEA-AEEA-γGlu-γGlu-C18 diacid])FVNWLLAQRG-OH [Compound No. 217]: the “Human GLP1R cAMP EC50, HEK293T” value in data set [1] was 135 nM. Moreover, the “Human GIPR cAMP EC50, HEK293T” value in data set [2] is 0.0006 nM.

Consider H-Y[Aib]EGTFISDYSIALDRAAQ[Aib]K([AEEA-AEEA-γGlu-γGlu-C18 diacid])FVEWLLAQRG-OH [Compound No. 206], for which, in data set [1], the “Human GLP1R cAMP EC50, HEK293T” value was 26.3 nM. For the same molecule, in data set [2], the “Human GIPR cAMP EC50, HEK293T” value is 0.0004 nM.

Regarding [NMeY][Aib]EGTFISDYSIALDR[Aib]AQ[Aib]K([AEEA-AEEA-γGlu-γGlu-Stearoyl])FVNWLLAQKG-OH [Compound No. 203], in data set [1], the “Human GLP1R cAMP EC50, HEK293T” value was 4.17 nM. For the same molecule, the “Human GIPR cAMP EC50, HEK293T” value in data set [2] was found to be 0.0013 nM.

Regarding [NMeY]AEGTFISDYSI[Aib]LDR[Aib]AQ[Aib]K([AEEA-AEEA-γGlu-γGlu-C18 diacid])FVNWLLAQRG-OH [Compound No. 218], the “Human GLP1R cAMP EC50, HEK293T” value in data set [1] worked out at 38 nM. Moreover, the “Human GIPR cAMP EC50, HEK293T” value in data set [2] worked out at 0.0005 nM.

With [NMeY][Aib]EGTFISDYSI[Aib]LDR[Aib]AQ[Aib]K([AEEA-AEEA-C18 diacid])FVNWLLAQRG-OH [Compound No. 219], in data set [1], the “Human GLP1R cAMP EC50, HEK293T” value is 17.4 nM. The “Human GIPR cAMP EC50, HEK293T” value in data set [2] is 0.0008 nM.

For the molecule [NMeY][Aib]EGTFISDYSI[Aib]LDR[Aib]AQAK([AEEA-AEEA-γGlu-γGlu-C18 diacid])FVNWLLAQRG-OH [Compound No. 215], the “Human GLP1R cAMP EC50, HEK293T” value in data set [1] was found to be 61.7 nM. The “Human GIPR cAMP EC50, HEK293T” value in data set [2] was 0.0005 nM.

[NMeY][Aib]EGTFISDYSI[Aib]LDR[Aib]HQ[Aib]K([AEEA-AEEA-γGlu-γGlu-C18 diacid])FVNWLLAQRG-OH [Compound No. 201]: in data set [1], the “Human GLP1R cAMP EC50, HEK293T” value is 61.7 nM. Moreover, the “Human GIPR cAMP EC50, HEK293T” value in data set [2] turned out to be 0.0009 nM.

Consider [NMeY][Aib]EGTFISDYSIALDRAAQAK([AEEA-AEEA-γGlu-γGlu-C18 diacid])FVNWLLAQRG-OH [Compound No. 216], for which the “Human GLP1R cAMP EC50, HEK293T” value in data set [1] was 79.4 nM. Besides, the “Human GIPR cAMP EC50, HEK293T” value in data set [2] amounted to 0.0005 nM.

[NMeY][Aib]EGTFISDYSI[Aib]LDR[Aib]AA[Aib]K([AEEA-AEEA-γGlu-γGlu-C18 diacid])FVNWLLAQRG-OH [Compound No. 212]: the “Human GLP1R cAMP EC50, HEK293T” value in data set [1] was found to be 42.7 nM. In data set [2], the “Human GIPR cAMP EC50, HEK293T” value was determined as 0.0003 nM.

In the case of [NMeY][Aib]EGTFISDYSI[Aib]LDR[Aib]AQ[Aib]K([AEEA-AEEA-γGlu-γGlu-Stearoyl])FVNWLLAQRG-OH [Compound No. 202], in data set [1], the “Human GLP1R cAMP EC50, HEK293T” value was 2.51 nM. For the same molecule, the “Human GIPR cAMP EC50, HEK293T” value in data set [2] stood at 0.0042 nM.

Regarding [NMeY][Aib]EGTFISDYSI[Aib]LDR[Aib]AQ[Aib]K([AEEA-AEEA-γGlu-C18 diacid])FVNWLLAQRG-OH [Compound No. 208], in data set [1], the “Human GLP1R cAMP EC50, HEK293T” value is 9.33 nM. For the same molecule, the “Human GIPR cAMP EC50, HEK293T” value in data set [2] worked out at 0.0003 nM.

Consider [NMeY][Aib]EGTFISDYSI[Aib]LDR[Aib]AQ[Aib]K([G5-γGlu-γGlu-C18 diacid])FVNWLLAQRG-OH [Compound No. 210], for which the “Human GLP1R cAMP EC50, HEK293T” value in data set [1] was determined as 10.7 nM. The “Human GIPR cAMP EC50, HEK293T” value in data set [2] is 0.0003 nM.
